Laboratory results: publication doi:10.1101/581934

B1: Mutated MARs DNA 16mer (dsDNA)
DNA 1: GCCCTGGTGTAGTGGC
DNA 2: GCCACTACACCAGGGC
B2: MARs DNA 16mer (dsDNA)
DNA 1: GTGCAGGTGTCCTTAA
DNA 2: TTAAGGACACCTGCAC

Molecular target: MeCP2-MBD WT (Homo sapiens, UniProt P51608 80-164)
Assay: ITC

MeCP2-MBD WT, sequence (P51608 80-164): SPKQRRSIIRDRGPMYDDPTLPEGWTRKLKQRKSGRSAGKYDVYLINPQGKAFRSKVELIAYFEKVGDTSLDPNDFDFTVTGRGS

Row | Binder | Kd
1 | B1 | 3.8 ± 0.7 µM
2 | B2 | 2.8 ± 0.2 µM
